Data as given in patent publication US7078491 (Amgen, dated 2006).

Target: T1, flag-tagged hTERT protein from transfected 293T cells (human, UniProt O14746 1-1132)
T1 construct: also called hTERT from 293T cells; 293T lysate
Assay: immunoprecipitation from 293T lysate, Western blot with peptide polyclonal antibody
Protocol: Immunoprecipitation experiments were also carried out to verify the specificity of the 4A5 and 4B5 monoclonal antibodies. Protein G Sepharose beads (Pharmacia) were incubated with anti-mouse IgG (Amersham Biotech) in CHAPS buffer (0.5% CHAPS, 10 mM TRIS, 1 mM NaCl, 10% glycerol, 1 mM DTT, RNase inhibitor, Complete Protease Inhibitor; Boehringer Mannheim) at room temperature for 1 to 4 hours. The beads were washed and then incubated again at room temperature for 1 to 4 hours with 2 µg of one of the following antibodies: anti-GST, peptide polyclonal antibody, RT polyclonal antibody, 4A5 monoclonal antibody, 4B5 monoclonal antibody. For the negative control 4G6 antibody, the beads were incubated with 4G6 antibody in CHAPS buffer.
Following the incubation, the beads were washed with the aforementioned buffer and then incubated in the aforementioned buffer containing either 50 µl of hTERT-s200 generated by the TNT reaction on rabbit reticulocyte (see upper panels in FIG. 2) or 100 µl of 293T lysate (see lower panel in FIG. 2) for 1 to 4 hours at 4° C. The beads were washed again in the aforementioned buffer, the excess buffer removed form the beads and suspended in 4× SDS loading dye (see Sambrook et al, supra.). […] Western blotting was carried out as described above and probed with 0.28 µg/ml of peptide polyclonal hTERT antibody and binding was detected with the ECL method. […]

T1 sequence (O14746 whole entry): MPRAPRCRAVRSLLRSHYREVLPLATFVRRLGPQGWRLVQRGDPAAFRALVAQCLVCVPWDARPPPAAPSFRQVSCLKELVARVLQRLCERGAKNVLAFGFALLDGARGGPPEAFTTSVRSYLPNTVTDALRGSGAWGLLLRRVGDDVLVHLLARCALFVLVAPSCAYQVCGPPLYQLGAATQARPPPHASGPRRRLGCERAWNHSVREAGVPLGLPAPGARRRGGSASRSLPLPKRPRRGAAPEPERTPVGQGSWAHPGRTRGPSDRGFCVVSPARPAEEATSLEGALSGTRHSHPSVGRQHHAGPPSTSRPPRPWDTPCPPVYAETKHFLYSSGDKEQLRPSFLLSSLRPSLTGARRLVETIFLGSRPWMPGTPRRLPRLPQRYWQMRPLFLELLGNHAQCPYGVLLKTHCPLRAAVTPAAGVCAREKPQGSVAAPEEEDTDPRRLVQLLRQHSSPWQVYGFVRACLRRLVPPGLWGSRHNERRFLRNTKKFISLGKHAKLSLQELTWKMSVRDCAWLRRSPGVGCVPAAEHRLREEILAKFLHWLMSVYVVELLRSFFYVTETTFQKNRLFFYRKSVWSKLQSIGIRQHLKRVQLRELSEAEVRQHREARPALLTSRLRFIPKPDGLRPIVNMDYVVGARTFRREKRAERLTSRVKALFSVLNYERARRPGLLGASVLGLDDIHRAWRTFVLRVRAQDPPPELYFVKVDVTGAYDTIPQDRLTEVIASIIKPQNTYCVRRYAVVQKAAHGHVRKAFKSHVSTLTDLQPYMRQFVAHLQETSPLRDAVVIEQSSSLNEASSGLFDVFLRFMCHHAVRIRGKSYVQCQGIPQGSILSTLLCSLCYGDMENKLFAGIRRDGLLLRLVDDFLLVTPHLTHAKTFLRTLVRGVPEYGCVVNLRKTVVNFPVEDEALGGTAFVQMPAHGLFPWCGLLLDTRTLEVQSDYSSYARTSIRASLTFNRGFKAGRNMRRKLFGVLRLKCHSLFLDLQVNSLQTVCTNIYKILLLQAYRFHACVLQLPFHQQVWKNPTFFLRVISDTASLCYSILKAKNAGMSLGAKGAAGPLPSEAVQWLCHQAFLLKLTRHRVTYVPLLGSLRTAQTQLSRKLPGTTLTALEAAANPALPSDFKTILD

- binding result: binds
B1: 4A5 monoclonal antibody (hybridoma 4A5, ATCC PTA-2412) (antibody, V domains shown)
VH: EVKLVESGGGLVKPGGSLKLSCAASGFTFSSYAMSWVRQTPEKRLEWVASISSGGNTYYPDNVQGRFTISRDNARNILYLQMSSLRSEDTAMFYCAREGVYDTYGGVDYWGQGTTLTVSS
VL: DIVLTQSPTSLAVSLGQRATISCKASQSVDYDGDSFINWYQQTPGQPPKLLIYAASNLASGIPARFSGSGSGTDFTLNIHPVEEEDAATYYCQQSNEAPPTFGGGTKLEI
notes: Mouse monoclonal from hybridoma, characterized as IgG2B type, kappa light chain primers used; also called 4A5 mAb; 45A
